Measurements reported in the Human Domainome abundance scans (Beltran et al. 2025).
± gives the uncertainty stated by the source.

B1: Ubiquitin-protein ligase residues 30 to 86; numbered along this chain, Q05086 (parent)
chain: KHLIERYYHQLTEGCGNEACTNEFCASCPTFLRMDNNAAAIKALELYKINAKLCDPH
B2: Zinc finger homeobox protein 4, residues 2086 to 2141; numbered along this chain, Q86UP3 (parent)
chain: RPRTRITDDQLKILRAYFDINNSPSEEQIQEMAEKSGLSQKVIKHWFRNTLFKERQ

Variants of: B1
Experiment: abundance fitness (aPCA) (normalised: wild type 0, dead -1); higher = more abundant; growth selection in yeast, the domain comes from the species named
Conditions: Homo sapiens
KHLIERYYHQLTEGCGNEACTNEFCASCPTFLRMDNNAAAIKALELYKINAKLCDYH [P56Y] showed an abundance fitness of -0.049 ± 0.19. Work on KHLIERYYHQLTEGCGNEACTNEFCASCPTFLRMDNNAAAIKALELYKINAKLCDKH [P56K] yielded an abundance fitness of -0.055 ± 0.13.

Variants of: B2
Experiment: as above
Conditions: Homo sapiens
Variant RQRTRITDDQLKILRAYFDINNSPSEEQIQEMAEKSGLSQKVIKHWFRNTLFKERQ [P2Q] has an abundance fitness of 0.173 ± 0.13. RARTRITDDQLKILRAYFDINNSPSEEQIQEMAEKSGLSQKVIKHWFRNTLFKERQ [P2A] showed an abundance fitness of -0.134 ± 0.097. For RRRTRITDDQLKILRAYFDINNSPSEEQIQEMAEKSGLSQKVIKHWFRNTLFKERQ [P2R], the abundance fitness was -0.083 ± 0.08. RLRTRITDDQLKILRAYFDINNSPSEEQIQEMAEKSGLSQKVIKHWFRNTLFKERQ [P2L] showed an abundance fitness of -0.047 ± 0.088. RDRTRITDDQLKILRAYFDINNSPSEEQIQEMAEKSGLSQKVIKHWFRNTLFKERQ [P2D] showed an abundance fitness of 0.033 ± 0.11. With RKRTRITDDQLKILRAYFDINNSPSEEQIQEMAEKSGLSQKVIKHWFRNTLFKERQ [P2K] the abundance fitness was 0.197 ± 0.15. RWRTRITDDQLKILRAYFDINNSPSEEQIQEMAEKSGLSQKVIKHWFRNTLFKERQ [P2W] gave an abundance fitness of -1.01 ± 0.15. In the case of RTRTRITDDQLKILRAYFDINNSPSEEQIQEMAEKSGLSQKVIKHWFRNTLFKERQ [P2T], the abundance fitness is reported as 0.049 ± 0.1. RMRTRITDDQLKILRAYFDINNSPSEEQIQEMAEKSGLSQKVIKHWFRNTLFKERQ [P2M] showed an abundance fitness of 0.143 ± 0.14. Variant RYRTRITDDQLKILRAYFDINNSPSEEQIQEMAEKSGLSQKVIKHWFRNTLFKERQ [P2Y] has an abundance fitness of 0.022 ± 0.16. In the case of RGRTRITDDQLKILRAYFDINNSPSEEQIQEMAEKSGLSQKVIKHWFRNTLFKERQ [P2G], the abundance fitness is reported as 0.048 ± 0.077. Variant RNRTRITDDQLKILRAYFDINNSPSEEQIQEMAEKSGLSQKVIKHWFRNTLFKERQ [P2N] has an abundance fitness of 0.18 ± 0.16. In the case of RCRTRITDDQLKILRAYFDINNSPSEEQIQEMAEKSGLSQKVIKHWFRNTLFKERQ [P2C], the abundance fitness is reported as -0.844 ± 0.12. RHRTRITDDQLKILRAYFDINNSPSEEQIQEMAEKSGLSQKVIKHWFRNTLFKERQ [P2H] showed an abundance fitness of 0.187 ± 0.14. RVRTRITDDQLKILRAYFDINNSPSEEQIQEMAEKSGLSQKVIKHWFRNTLFKERQ [P2V] gave an abundance fitness of 0.067 ± 0.081. Work on RSRTRITDDQLKILRAYFDINNSPSEEQIQEMAEKSGLSQKVIKHWFRNTLFKERQ [P2S] yielded an abundance fitness of 0.057 ± 0.078. RFRTRITDDQLKILRAYFDINNSPSEEQIQEMAEKSGLSQKVIKHWFRNTLFKERQ [P2F] gave an abundance fitness of 0.157 ± 0.13. With RIRTRITDDQLKILRAYFDINNSPSEEQIQEMAEKSGLSQKVIKHWFRNTLFKERQ [P2I] the abundance fitness was -0.067 ± 0.11. For RPETRITDDQLKILRAYFDINNSPSEEQIQEMAEKSGLSQKVIKHWFRNTLFKERQ [R3E], the abundance fitness was 0.054 ± 0.12. Work on RPNTRITDDQLKILRAYFDINNSPSEEQIQEMAEKSGLSQKVIKHWFRNTLFKERQ [R3N] yielded an abundance fitness of -0.033 ± 0.12. Work on RPFTRITDDQLKILRAYFDINNSPSEEQIQEMAEKSGLSQKVIKHWFRNTLFKERQ [R3F] yielded an abundance fitness of -0.15 ± 0.095. RPLTRITDDQLKILRAYFDINNSPSEEQIQEMAEKSGLSQKVIKHWFRNTLFKERQ [R3L] showed an abundance fitness of -0.024 ± 0.083. For RPKTRITDDQLKILRAYFDINNSPSEEQIQEMAEKSGLSQKVIKHWFRNTLFKERQ [R3K], the abundance fitness was -0.011 ± 0.16. Variant RPCTRITDDQLKILRAYFDINNSPSEEQIQEMAEKSGLSQKVIKHWFRNTLFKERQ [R3C] has an abundance fitness of -0.343 ± 0.097. RPMTRITDDQLKILRAYFDINNSPSEEQIQEMAEKSGLSQKVIKHWFRNTLFKERQ [R3M] gave an abundance fitness of 0.216 ± 0.11. Work on RPGTRITDDQLKILRAYFDINNSPSEEQIQEMAEKSGLSQKVIKHWFRNTLFKERQ [R3G] yielded an abundance fitness of 0.099 ± 0.064. For RPHTRITDDQLKILRAYFDINNSPSEEQIQEMAEKSGLSQKVIKHWFRNTLFKERQ [R3H], the abundance fitness was 0.042 ± 0.13. RPDTRITDDQLKILRAYFDINNSPSEEQIQEMAEKSGLSQKVIKHWFRNTLFKERQ [R3D] showed an abundance fitness of 0.015 ± 0.1. With RPITRITDDQLKILRAYFDINNSPSEEQIQEMAEKSGLSQKVIKHWFRNTLFKERQ [R3I] the abundance fitness was -0.136 ± 0.1. Work on KPRTRITDDQLKILRAYFDINNSPSEEQIQEMAEKSGLSQKVIKHWFRNTLFKERQ [R1K] yielded an abundance fitness of -0.891 ± 0.33. Variant YPRTRITDDQLKILRAYFDINNSPSEEQIQEMAEKSGLSQKVIKHWFRNTLFKERQ [R1Y] has an abundance fitness of -0.157 ± 0.19. Variant SPRTRITDDQLKILRAYFDINNSPSEEQIQEMAEKSGLSQKVIKHWFRNTLFKERQ [R1S] has an abundance fitness of -0.284 ± 0.096. TPRTRITDDQLKILRAYFDINNSPSEEQIQEMAEKSGLSQKVIKHWFRNTLFKERQ [R1T] showed an abundance fitness of -0.131 ± 0.12. Variant NPRTRITDDQLKILRAYFDINNSPSEEQIQEMAEKSGLSQKVIKHWFRNTLFKERQ [R1N] has an abundance fitness of 0.247 ± 0.12. For DPRTRITDDQLKILRAYFDINNSPSEEQIQEMAEKSGLSQKVIKHWFRNTLFKERQ [R1D], the abundance fitness was 0.188 ± 0.24. Variant HPRTRITDDQLKILRAYFDINNSPSEEQIQEMAEKSGLSQKVIKHWFRNTLFKERQ [R1H] has an abundance fitness of -0.211 ± 0.25. APRTRITDDQLKILRAYFDINNSPSEEQIQEMAEKSGLSQKVIKHWFRNTLFKERQ [R1A] gave an abundance fitness of -0.327 ± 0.37. For LPRTRITDDQLKILRAYFDINNSPSEEQIQEMAEKSGLSQKVIKHWFRNTLFKERQ [R1L], the abundance fitness was -0.101 ± 0.2. In the case of MPRTRITDDQLKILRAYFDINNSPSEEQIQEMAEKSGLSQKVIKHWFRNTLFKERQ [R1M], the abundance fitness is reported as -0.634 ± 0.22. Work on WPRTRITDDQLKILRAYFDINNSPSEEQIQEMAEKSGLSQKVIKHWFRNTLFKERQ [R1W] yielded an abundance fitness of -1.13 ± 0.23. In the case of VPRTRITDDQLKILRAYFDINNSPSEEQIQEMAEKSGLSQKVIKHWFRNTLFKERQ [R1V], the abundance fitness is reported as -0.21 ± 0.23. For PPRTRITDDQLKILRAYFDINNSPSEEQIQEMAEKSGLSQKVIKHWFRNTLFKERQ [R1P], the abundance fitness was -0.512 ± 0.22. For IPRTRITDDQLKILRAYFDINNSPSEEQIQEMAEKSGLSQKVIKHWFRNTLFKERQ [R1I], the abundance fitness was -0.116 ± 0.12. For CPRTRITDDQLKILRAYFDINNSPSEEQIQEMAEKSGLSQKVIKHWFRNTLFKERQ [R1C], the abundance fitness was -0.033 ± 0.14. In the case of FPRTRITDDQLKILRAYFDINNSPSEEQIQEMAEKSGLSQKVIKHWFRNTLFKERQ [R1F], the abundance fitness is reported as -0.327 ± 0.27.
